Assay results: PMC2818353

Biological target: YAP (WW1+WW2) protein fragment, recombinant 104-amino acid polypeptide
Assay: ITC

Question: For “Smad1 peptide extended to include S206 and S214 (unphosphorylated) and the PY motif”, which fold increase of the interaction over the Smad1 peptide with only the PY motif is on record?
Answer: 2.5 fold
